Laboratory results reported in article PMC9299187.
Read-outs that look alike come from different tables or passages of the source. One block for each molecule: values may come before it.

Columns and labels:
[1] = biological target: Chimera‐Short (human DHFR‐TYMS bifunctional chimeric enzyme with 10 amino acid linker) (human); experiment: SEC; Superdex 200 10/300, 0.1 M K-phosphate pH 7.5, calibrated with protein standards; IMAC fractions of the Chimera constructs
[2] = biological target: Chimera‐Long (human DHFR‐TYMS bifunctional chimeric enzyme with 20 amino acid linker) (human); experiment: as above
[3] = biological target: Chimera‐Long (human DHFR‐TYMS bifunctional chimeric enzyme with 20 amino acid linker) (human); experiment: SPR; Chimera-Long amine-coupled on a COOH2 chip (735 RU on Ch1, 175 RU on Ch3), SHMT1 as analyte 2.66-85 uM, 25 °C, 10 mM Hepes pH 7.4, 150 mM NaCl, 0.005% Tween-20; 1 : 1 bimolecular interaction model
[4] = biological target: Chimera‐Long (human DHFR‐TYMS bifunctional chimeric enzyme with 20 amino acid linker) (human); experiment: BLI; Chimera held by mouse anti-DHFR on a Protein-A biosensor, SHMT1 as analyte 1-30 uM, kinetic titration series, kinetic buffer, 25 °C; two-exponential fit, heterogeneous binding model with two binding events
[5] = biological target: Chimera‐Long (human DHFR‐TYMS bifunctional chimeric enzyme with 20 amino acid linker) (human); experiment: SPR; Chimera-Long amine-coupled on a COOH2 chip (735 RU on Ch1, 175 RU on Ch3), SHMT1 as analyte 2.66-85 uM, 25 °C, 10 mM Hepes pH 7.4, 150 mM NaCl, 0.005% Tween-20; 1 : 1 bimolecular interaction model; remark: listed apart in the source

stoichiometry N [1]: 2
Molecule: Chimera‐Short (human DHFR‐TYMS bifunctional chimeric enzyme with 10 amino acid linker)

stoichiometry N [2]: 2
Molecule: Chimera‐Long (human DHFR‐TYMS bifunctional chimeric enzyme with 20 amino acid linker)

Kd [3]: 2.9 µM | KD, binding 1 [4]: 16.4 µM | KD, binding 2 [4]: 13.5 µM | koff, binding 1 [4]: 0.2 s⁻¹ | koff, binding 2 [4]: 0.02 s⁻¹ | kon, binding 1 [4]: 14000 M⁻¹ s⁻¹ | kon, binding 2 [4]: 1600 M⁻¹ s⁻¹ | Kd [5]: 2.5 µM | koff [5]: 0.0025 s⁻¹ | kon [5]: 470 M⁻¹ s⁻¹
B1: serine hydroxymethyltransferase (SHMT1), purified recombinant, tetrameric (enzyme)
chain: DADLWSSHDKMLAQPLKDSDVEVYNIIKKESNRQRVGLELIASENFASRAVLEALGSCLNNKYSEGYPGQRYYGGTEFIDELETLCQKRALQAYKLDPQCWGVNVQPYSGSPANFAVYTALVEPHGRIMGLDLPDGGHLTHGFMTDKKKISATSIFFESMPYKVNPDTGYINYDQLEENARLFHPKLIIAGTSCYSRNLEYARLRKIADENGAYLMADMAHISGLVAAGVVPSPFEHCHVVTTTTHKTLRGCRAGMIFYRKGVKSVDPKTGKEILYNLESLINSAVFPGLQGGPHNHAIAGVAVALKQAMTLEFKVYQHQVVANCRALSEALTELGYKIVTGGSDNHLILVDLRSKGTDGGRAEKVLEACSIACNKNTCPGDRSALRPSGLRLGTPALTSRGLLEKDFQKVAHFIHRGIELTLQIQSDTGVRATLKEFKERLAGDKYQAAVQALREEVESFASLFPLPGL
